Assay results published in US12258605B2, “Alkane oxidation by modified hydroxylases” (The California Institute of Technology, priority 2005, dated 2025).

Columns and labels:
[1] = Methane to methanol conversion (alcohol oxidase/Purpald); type: biochemical; settings: for Methane TTN: methane to methanol
Procedure: The 35-E11 variant was tested for the ability to convert methane to methanol using the method of Anthon and Barrett (Agric. Food Chem., 52:3749 (2004)). The method was optimized so that it could detect methanol concentrations in water as low as 10 μM.
The mutant BM-3 enzymes described below were purified using published procedures and used as catalysts in small reactions with methane. In glass head space vials containing magnetic stirring bars, BM-3 catalyst was added to 0.1 M potassium phosphate buffer (pH=8) saturated with methane. The vials were then crimped shut and charged to 20 psi with methane. To start the biotransformation, an NADPH regeneration system consisting of NADP+, isocitrate, and isocitric dehydrogenase was added through a syringe. The reaction was allowed to stir 12-15 hours. Methanol production was measured using a coupled enzyme assay. Aliquots of the reaction were transferred to 96-well microtitre plates and reacted with the enzyme alcohol oxidase for 5 minutes at room temperature. Alcohol oxidase converts the methanol produced by the BM-3 variants into formaldehyde which can be detected with the dye Purpald. To detect formaldehyde and quench the alcohol oxidase reaction, a solution of Purpald in 2 M NaOH was added and allowed to react for one hour. The purple color that Purpald forms in the presence of formaldehyde was quantified one hour later by spectrophotometrically reading the well at 550 nm and comparing the absorbance against similarly-treated solutions of BM-3, NADPH regeneration system, and methane-free buffer spiked with known concentrations of methanol. The results of these biotransformations are reported in Table 3 and sample spectra from the colorimetric assay are shown in FIG. 7.
Reactions for enzyme-catalyzed conversion of methane to methanol were carried out in 10 mL glass headspace vials. A 470 μL reaction mixture containing 5 μM purified BM-3 variant in 0.1 M potassium phosphate buffer (pH 8.0) was first added to the vial. The vial was immediately topped with a septum, pressurized with 30 psi of methane and shaken at 4° C. for 1 hour. […] For determination of total turnover, the reaction was allowed to proceed for 20 hours at room temperature.
The amount of methanol product formed during the 20 hr methane reaction was quantified colorimetrically with the use of alcohol oxidase and Purpald. 190 μL of the reaction mixture is transferred onto a single cell of a 96 well plate. 10 μL of 0.05 U/μL solution of alcohol oxidase (from Pichia pastoris, purchased from Sigma-Aldrich) was added to cell and allowed to incubate at room temperature for 5 minutes. During this time, the alcohol oxidase converts the methanol into formaldehyde. Purpald (168 mM in 2 M NAOH) was then added to form a purple product with the formaldehyde in solution. The purple color was read approximately 1 hour later at 550 nm using a Spectramax Plus microtiter plate reader. The concentration of methanol was determined based on the measure absorbance in comparison to a methanol calibration curve. The methanol calibration curve was generated with several standards. Each standard contained 100 μL of a methanol solution (10, 20, 40, 60, 100 μM) and 90 μL of the methane reaction mixture described above, without the methane pressurization.
The relative dimethyl ether (DME) activity was measured, 1 hour after treatment with Purpald, as the average net and absorbance at 550 nm from 8 microtitre plate DME reactions of the mutant compared to 8 equivalent reactions of 35-E11. All values were normalized by measuring the P450 concentration in each well with CO binding. “Asteriks” indicate criteria used to select mutants from libraries for further characterization. The oxidation rate is measured as absorbance change at 340 nm over 1 minute upon the addition of NADPH to 8 microtitre plate wells containing P450-containing cell lysate and compared to 8 equivalent reactions of 35-E11. […]

[2] = Kinetic constants for n-alkanes: hexane; type: biochemical; settings: N.a. = not active
Procedure: Rate measurements. Initial rates of product formation were determined at 25° C. in 100 mM KPi pH 8.0 buffer using purified protein (100 nM) and a substrate concentration of 1.6 mM. In a 5 mL-vial, 20 μL of alkane solution (in ethanol) were dissolved in 400 μL KPi buffer, to which 500 μL enzyme solution at 100-200 nM was added. Reaction was initiated by adding 100 μL of 5 mM NADPH solution, followed by stirring at 300 rpm for 1 minute, and quenched by adding 200 μL chloroform and stirring at 800 rpm for 10 sec. Solutions were transferred to an Eppendorf tube, to which internal standard (10 μL 25 mM 1-bromohexane in ethanol) was added. Tubes were vortexed for 10 sec and centrifuged for 30 sec at 10,000 g. Organic phase was removed and analyzed by GC. For propane, reactions were carried out in a 5 mL-scale using 100-400 nM purified enzyme, propane-saturated buffer (propane concentration≈1.6 mM) and a final NADPH concentration of 500 μM. Reactions were stopped by addition of 200 μL H2SO4 conc. and analyzed by derivatization to alkyl nitrites followed by GC-ECD analysis as described below.
Products from alkane reactions were identified and quantified by gas chromatography using authentic standards and calibration curves with internal standards. For the reactions with alkanes from pentane to decane, GC analyses were carried out using a Shimadzu GC-17A gas chromatograph, Agilent HP5 column (30 m×0.32 mm×0.1 μm film), 1 μL injection, FID detector, and the following separation program: 250° C. inlet, 250° C. detector, 50° C. oven for 3 min, 5° C./min gradient to 100° C., 25° C./min gradient to 230° C., and 230° C. for 3 min. For butane and propane (TTN) reactions, GC analyses were carried out using a Hewlett-Packard 5890 Series II Plus gas chromatograph, Supelco SPB-1 column (60 m×0.52 mm×0.5 μm film), 0.5 μL injection, FID detector, and the following separation program: 250° C. inlet, 275° C. detector, 80° C. oven for 2 min, 10° C./min gradient to 110° C., 25° C./min gradient to 275° C., and 275° C. for 2.5 min. For ethane and propane (rate) reactions, analysis of reaction mixtures was carried out by derivatization to alkyl nitrites followed by GC-ECD analysis. For laurate, reaction product analysis was carried out by derivatization with N-methyl-N-trimethylsilylheptafluorobutyramide followed by extraction with hexane. Organic solutions were analyzed by FID-GC.
To further investigate the evolution of substrate specificity, kinetic constants for the C5 to C8 alkanes were determined from Michaelis-Menten plots (Table 19). The preference of 35E11 and its evolutionary predecessors for medium-chain alkanes is indicated by their high C8/C5 specificities ((kcat/Km)8/(kcat/Km)5˜100), where Km appears to be the major contributing factor. […]

Molecule | methanol production from methane ([1]; assay detects methanol as low as 10 μM) | Methane TTN [1] | Km [2] [µM] | kcat [2] [s⁻¹]
35-E11: P450 BM-3 variant, SEQ ID NO:7: 53-5H substitutions plus E464G and I710T (protein, mutant P450 35-E11 protein sequence) TIKEMPQPKTFGELKNLPLLNTDKPVQALMKIADELGEIFKFEAPGCVTRYLSSQRLIKEACDESRFDKNLSQALKFFRDFSGDGLFTSWTHEINWKKAHNILLPSFSQQAMKGYHAMMVDIAVQLVQKWERLNADEHIEVSEDMTRLTLDTIGLCGFNYRFNSFYRDQPHPFIISMVRALDEVMNKLQRANPDDPAYDENKRQCQEDIKVMNDLVDKIIADRKARGEQSDDLLTQMLNGKDPETGEPLDDGNISYQIITFLIAGHETTSGLLSFALYFLVKNPHVLQKVVEEAARVLVDPVPSYKQVKQLKYVGMVLNEALRLWPTFPAFSLYAKEDTVLGGEYPLEKGDEVMVLIPQLHRDKTIWGDDVEEFRPERFENPSAIPQHAFKPFGNGQRACIGQQFALHEATLVLGMMLKHFDFEDHTNYELDIKETLTLKPEGFVVKAKSKKIPLGGIPSPSTGQSAKKVRKKAENAHNTPLLVLYGSNMGTAEGTARDLADIAMSKGFAPQVATLDSHAGNLPREGAVLIVTASYNGHPPDNAKQFVDWLDQASADEVKGVRYSVFGCGDKNWATTYQKVPAFIDETLAAKGAENIADRGEADASDDFEGTYEEWREHMWSDVAAYFNLDIENSEDNKSTLSLQFVDSAADMPLAKMHGAFSTNVVASKELQQPGSARSTRHLEIELPKEASYQEGDHLGVIPRNYEGTVNRVTARFGLDASQQIRLEAEEEKLAHLPLAKTVSVEELLQYVELQDPVTRTQLRAMAAKTVCPPHKVELEALLEKQAYKEQVLAKRLTMLELLEKYPACEMKFSEFIALLPSIRPRYYSISSSPRVDEKQASITVSVVSGEAWSGYGEYKGIASNYLAELQEGDTITCFISTPQSEFTLPKDPETPLIMVGPGTGVAPFRGFVQARKQLKEQGQSLGEAHLYFGCRSPHEDYLYQEELENAQSEGIITLHTAFSRMPNQPKTYVQHVMEQDGKKLIELLDQGAHFYICGDGSQMAPAVEATLMKSYADVHQVSEADARLWLQQLEEKGRYAKDVWAG | producing methanol from methane | 8 | 370 ± 33 | 11.8 ± 1.15
20-D3: P450 BM-3 variant, SEQ ID NO:11; 35-E11 plus H285R (protein, mutant P450 20-D3 protein sequence, 35-E11 plus H285R) TIKEMPQPKTFGELKNLPLLNTDKPVQALMKIADELGEIFKFEAPGCVTRYLSSQRLIKEACDESRFDKNLSQALKFFRDFSGDGLFTSWTHEINWKKAHNILLPSFSQQAMKGYHAMMVDIAVQLVQKWERLNADEHIEVSEDMTRLTLDTIGLCGFNYRFNSFYRDQPHPFIISMVRALDEVMNKLQRANPDDPAYDENKRQCQEDIKVMNDLVDKIIADRKARGEQSDDLLTQMLNGKDPETGEPLDDGNISYQIITFLIAGHETTSGLLSFALYFLVKNPRVLQKVVEEAARVLVDPVPSYKQVKQLKYVGMVLNEALRLWPTFPAFSLYAKEDTVLGGEYPLEKGDEVMVLIPQLHRDKTIWGDDVEEFRPERFENPSAIPQHAFKPFGNGQRACIGQQFALHEATLVLGMMLKHFDFEDHTNYELDIKETLTLKPEGFVVKAKSKKIPLGGIPSPSTGQSAKKVRKKAENAHNTPLLVLYGSNMGTAEGTARDLADIAMSKGFAPQVATLDSHAGNLPREGAVLIVTASYNGHPPDNAKQFVDWLDQASADEVKGVRYSVFGCGDKNWATTYQKVPAFIDETLAAKGAENIADRGEADASDDFEGTYEEWREHMWSDVAAYFNLDIENSEDNKSTLSLQFVDSAADMPLAKMHGAFSTNVVASKELQQPGSARSTRHLEIELPKEASYQEGDHLGVIPRNYEGTVNRVTARFGLDASQQIRLEAEEEKLAHLPLAKTVSVEELLQYVELQDPVTRTQLRAMAAKTVCPPHKVELEALLEKQAYKEQVLAKRLTMLELLEKYPACEMKFSEFIALLPSIRPRYYSISSSPRVDEKQASITVSVVSGEAWSGYGEYKGIASNYLAELQEGDTITCFISTPQSEFTLPKDPETPLIMVGPGTGVAPFRGFVQARKQLKEQGQSLGEAHLYFGCRSPHEDYLYQEELENAQSEGIITLHTAFSRMPNQPKTYVQHVMEQDGKKLIELLDQGAHFYICGDGSQMAPAVEATLMKSYADVHQVSEADARLWLQQLEEKGRYAKDVWAG |  | 10 |  | 
P450PMO: P450 BM-3 variant, SEQ ID NO:125; 7-7 plus G443A and D698G; propane monooxygenase (protein, Mutant P450PMO protein sequence, 7-7 plus G443A and D698G; propane monooxygenase) TIKEMPQPKTFGELKNLPLLNTDKPVQALMKIADELGEIFKFEAPGCVTRYISSQRLIKEACDESRFDKNLSQELKFFRDFGGDGLFTSWTHEINWKKAHNILLPSFSQQAMKGYHAMMVDIAVQLVQKWERLNADEHIEVSEDMTRLTLDTIGLCGFNYRFNSFYRDQPHPFIISMVRALDEVMNKPQRANPDDPAYDENKRQCQEDIKVMNDLVDKIIADRKARGEQSDDLLTQMLNGKDPETGEPLDDGNISYQIITFLIAGHETTSGLLSFALYFLVKNPHVLQKVVEEAARVLVDPVPSYKQVKQLKYVGMVLNEALRLWPTFPAFSLYAKEDTVLGGEYPLEKGDEVMVLIPQLHRDKTVWGDDVEEFRPERFENPSAIPQHAFKPFGNGQRACIGQQFALHEATLVLGMMLKHFDFEDHTNYELDIKETLTLKPEAFVVKAKSKKIPLGGIPSPSTGQSAKKVRKKAENAHNTPLLVLYGSNMGTAEGTARDLADIAMSKGFAPQVATLDSHAGNLPREGAVLIVTASYNGHPPDNAKQFVDWLDQASADEVKGVRYSVFGCGDKNWATTYQKVPAFIDETLAAKGAENIADRGEADASDDFEGTYEEWREHMWSDVAAYFNLDIENSEDNKSTLSLQFVDSAADMPLAKMHGAFSTNVVASKELQQPGSARSTRHLEIELPKEASYQEGGHLGVIPRNYEGTVNRVTARFGLDASQQIRLEAEEEKLAHLPLAKTVSVEELLQYVELQDPVTRTQLRAMAAKTVCPPHKVELEALLEKQAYKEQVLAKRLTMLELLEKYPACEMKFSEFIALLPSIRPRYYSISSSPRVDEKQASITVSVVSGEAWSGYGEYKGIASNYLAELQEGDTITCFISTPQSEFTLPKDPETPLIMVGPGTGVAPFRGFVQARKQLKEQGQSLGEAHLYFGCRSPHEDYLYQEELENAQSEGIITLHTAFSRMPNQPKTYVQHVMEQDGKKLIELLDQGAHFYICGDGSQMAPAVEATLMKSYADVHQVSEADARLWLQQLEEKGRYAKDVWAG |  |  | 430 ± 91 | 1.42 ± 0.283
